Results as given in publication PMC2664613.

Biological target: F-actin (rabbit muscle actin polymerised in vitro) (rabbit) (UniProt P68135)
Assay: co-sedimentation

Substance: GST-PICK1 (from UniProt Q9EP80 1-416) (natural protein)
- Kd: 300 nM
